Patent US9958461B2, “Detection of protein to protein interactions” (THE GOVERNING COUNCIL OF THE UNIVERSITY OF TORONTO, priority 2013, dated 2018)

B1: CSK (protein, UniProt P41240 2-450, looked up)
Tyrosine-protein kinase CSK: SAIQAAWPSGTECIAKYNFHGTAEQDLPFCKGDVLTIVAVTKDPNWYKAKNKVGREGIIPANYVQKREGVKAGTKLSLMPWFHGKITREQAERLLYPPETGLFLVRESTNYPGDYTLCVSCDGKVEHYRIMYHASKLSIDEEVYFENLMQLVEHYTSDADGLCTRLIKPKVMEGTVAAQDEFYRSGWALNMKELKLLQTIGKGEFGDVMLGDYRGNKVAVKCIKNDATAQAFLAEASVMTQLRHSNLVQLLGVIVEEKGGLYIVTEYMAKGSLVDYLRSRGRSVLGGDCLLKFSLDVCEAMEYLEGNNFVHRDLAARNVLVSEDNVAKVSDFGLTKEASSTQDTGKLPVKWTAPEALREKKFSTKSDVWSFGILLWEIYSFGRVPYPRIPLKDVVPRVEKGYKMDAPDGCPPAVYEVMKNCWHLDAAMRPSFLQLREQLEHIKTHELHL
B2: SH3GL3 (protein, UniProt Q99963 1-347, looked up)
Endophilin-A3: MSVAGLKKQFHKASQLFSEKISGAEGTKLDDEFLDMERKIDVTNKVVAEILSKTTEYLQPNPAYRAKLGMLNTVSKIRGQVKTTGYPQTEGLLGDCMLKYGKELGEDSTFGNALIEVGESMKLMAEVKDSLDINVKQTFIDPLQLLQDKDLKEIGHHLKKLEGRRLDYDYKKKRVGKIPDEEVRQAVEKFEESKELAERSMFNFLENDVEQVSQLAVFIEAALDYHRQSTEILQELQSKLQMRISAASSVPRREYKPRPVKRSSSELNGVSTTSVVKTTGSNIPMDQPCCRGLYDFEPENQGELGFKEGDIITLTNQIDENWYEGMIHGESGFFPINYVEVIVPLPQ
B3: RAPGEF1 (protein, UniProt Q13905 1-1077, looked up)
Rap guanine nucleotide …: MDTDSQRSHLSSFTMKLMDKFHSPKIKRTPSKKGKPAEVSVKIPEKPVNKEATDRFLPEGYPLPLDLEQQAVEFMSTSAVASRSQRQKNLSWLEEKEKEVVSALRYFKTIVDKMAIDKKVLEMLPGSASKVLEAILPLVQNDPRIQHSSALSSCYSRVYQSLANLIRWSDQVMLEGVNSEDKEMVTTVKGVIKAVLDGVKELVRLTIEKQGRPSPTSPVKPSSPASKPDGPAELPLTDREVEILNKTTGMSQSTELLPDATDEEVAPPKPPLPGIRVVDNSPPPALPPKKRQSAPSPTRVAVVAPMSRATSGSSLPVGINRQDFDVDCYAQRRLSGGSHSYGGESPRLSPCSSIGKLSKSDEQLSSLDRDSGQCSRNTSCETLDHYDPDYEFLQQDLSNADQIPQQTAWNLSPLPESLGESGSPFLGPPFQLPLGGHPQPDGPLAPGQQTDTPPALPEKKRRSAASQTADGSGCRVSYERHPSQYDNISGEDLQSTAPIPSVPYAPFAAILPFQHGGSSAPVEFVGDFTAPESTGDPEKPPPLPEKKNKHMLAYMQLLEDYSEPQPSMFYQTPQNEHIYQQKNKLLMEVYGFSDSFSGVDSVQELAPPPALPPKQRQLEPPAGKDGHPRDPSAVSGVPGKDSRDGSERAPKSPDALESAQSEEEVDELSLIDHNEIMSRLTLKQEGDDGPDVRGGSGDILLVHATETDRKDLVLYCEAFLTTYRTFISPEELIKKLQYRYEKFSPFADTFKKRVSKNTFFVLVRVVDELCLVELTEEILKLLMELVFRLVCNGELSLARVLRKNILDKVDQKKLLRCATSSQPLAARGVAARPGTLHDFHSHEIAEQLTLLDAELFYKIEIPEVLLWAKEQNEEKSPNLTQFTEHFNNMSYWVRSIIMLQEKAQDRERLLLKFIKIMKHLRKLNNFNSYLAILSALDSAPIRRLEWQKQTSEGLAEYCTLIDSSSSFRAYRAALSEVEPPCIPYLGLILQDLTFVHLGNPDYIDGKVNFSKRWQQFNILDSMRCFQQAHYDMRRNDDIINFFNDFSDHLAEEALWELSLKIKPRNITRRKTDREEKT
B4: RIN1 (protein, UniProt Q13671 1-783, looked up)
Ras and Rab interactor 1: MESPGESGAGSPGAPSPSSFTTGHLAREKPAQDPLYDVPNASGGQAGGPQRPGRVVSLRERLLLTRPVWLQLQANAAAALHMLRTEPPGTFLVRKSNTRQCQALCMRLPEASGPSFVSSHYILESPGGVSLEGSELMFPDLVQLICAYCHTRDILLLPLQLPRAIHHAATHKELEAISHLGIEFWSSSLNIKAQRGPAGGPVLPQLKARSPQELDQGTGAALCFFNPLFPGDLGPTKREKFKRSFKVRVSTETSSPLSPPAVPPPPVPVLPGAVPSQTERLPPCQLLRRESSVGYRVPAGSGPSLPPMPSLQEVDCGSPSSSEEEGVPGSRGSPATSPHLGRRRPLLRSMSAAFCSLLAPERQVGRAAAALMQDRHTAAGQLVQDLLTQVRAGPEPQELQGIRQALSRARAMLSAELGPEKLLSPKRLEHVLEKSLHCSVLKPLRPILAARLRRRLAADGSLGRLAEGLRLARAQGPGAFGSHLSLPSPVELEQVRQKLLQLLRTYSPSAQVKRLLQACKLLYMALRTQEGEGAGADEFLPLLSLVLAHCDLPELLLEAEYMSELLEPSLLTGEGGYYLTSLSASLALLSGLGQAHTLPLSPVQELRRSLSLWEQRRLPATHCFQHLLRVAYQDPSSGCTSKTLAVPPEASIATLNQLCATKFRVTQPNTFGLFLYKEQGYHRLPPGALAHRLPTTGYLVYRRAEWPETQGAVTEEEGSGQSEARSRGEEQGCQGDGDAGVKASPRDIREQSETTAEGGQGQAQEGPAQPGEPEAEGSRAAEE
B5: GRAP2 (protein, UniProt O75791 1-330, looked up)
GRB2-related adapter protein 2: MEAVAKFDFTASGEDELSFHTGDVLKILSNQEEWFKAELGSQEGYVPKNFIDIQFPKWFHEGLSRHQAENLLMGKEVGFFIIRASQSSPGDFSISVRHEDDVQHFKVMRDNKGNYFLWTEKFPSLNKLVDYYRTNSISRQKQIFLRDRTREDQGHRGNSLDRRSQGGPHLSGAVGEEIRPSMNRKLSDHPPTLPLQQHQHQPQPPQYAPAPQQLQQPPQQRYLQHHHFHQERRGGSLDINDGHCGTGLGSEMNAALMHRRHTDPVQLQAAGRVRWARALYDFEALEDDELGFHSGEVVEVLDSSNPSWWTGRLHNKLGLFPANYVAPMTR
B6: STAM (protein, UniProt Q92783 2-540, looked up)
Signal transducing adapter …: PLFATNPFDQDVEKATSEMNTAEDWGLILDICDKVGQSRTGPKDCLRSIMRRVNHKDPHVAMQALTLLGACVSNCGKIFHLEVCSRDFASEVSNVLNKGHPKVCEKLKALMVEWTDEFKNDPQLSLISAMIKNLKEQGVTFPAIGSQAAEQAKASPALVAKDPGTVANKKEEEDLAKAIELSLKEQRQQSTTLSTLYPSTSSLLTNHQHEGRKVRAIYDFEAAEDNELTFKAGEIITVLDDSDPNWWKGETHQGIGLFPSNFVTADLTAEPEMIKTEKKTVQFSDDVQVETIEPEPEPAFIDEDKMDQLLQMLQSTDPSDDQPDLPELLHLEAMCHQMGPLIDEKLEDIDRKHSELSELNVKVMEALSLYTKLMNEDPMYSMYAKLQNQPYYMQSSGVSGSQVYAGPPPSGAYLVAGNAQMSHLQSYSLPPEQLSSLSQAVVPPSANPALPSQQTQAAYPNTMVSSVQGNTYPSQAPVYSPPPAATAAAATADVTLYQNAGPNMPQVPNYNLTSSTLPQPGGSQQPPQPQQPYSQKALL
B7: TNK2 (protein, UniProt Q07912 1-1038, looked up)
Activated CDC42 kinase 1: MQPEEGTGWLLELLSEVQLQQYFLRLRDDLNVTRLSHFEYVKNEDLEKIGMGRPGQRRLWEAVKRRKALCKRKSWMSKVFSGKRLEAEFPPHHSQSTFRKTSPAPGGPAGEGPLQSLTCLIGEKDLRLLEKLGDGSFGVVRRGEWDAPSGKTVSVAVKCLKPDVLSQPEAMDDFIREVNAMHSLDHRNLIRLYGVVLTPPMKMVTELAPLGSLLDRLRKHQGHFLLGTLSRYAVQVAEGMGYLESKRFIHRDLAARNLLLATRDLVKIGDFGLMRALPQNDDHYVMQEHRKVPFAWCAPESLKTRTFSHASDTWMFGVTLWEMFTYGQEPWIGLNGSQILHKIDKEGERLPRPEDCPQDIYNVMVQCWAHKPEDRPTFVALRDFLLEAQPTDMRALQDFEEPDKLHIQMNDVITVIEGRAENYWWRGQNTRTLCVGPFPRNVVTSVAGLSAQDISQPLQNSFIHTGHGDSDPRHCWGFPDRIDELYLGNPMDPPDLLSVELSTSRPPQHLGGVKKPTYDPVSEDQDPLSSDFKRLGLRKPGLPRGLWLAKPSARVPGTKASRGSGAEVTLIDFGEEPVVPALRPCAPSLAQLAMDACSLLDETPPQSPTRALPRPLHPTPVVDWDARPLPPPPAYDDVAQDEDDFEICSINSTLVGAGVPAGPSQGQTNYAFVPEQARPPPPLEDNLFLPPQGGGKPPSSAQTAEIFQALQQECMRQLQAPAGSPAPSPSPGGDDKPQVPPRVPIPPRPTRPHVQLSPAPPGEEETSQWPGPASPPRVPPREPLSPQGSRTPSPLVPPGSSPLPPRLSSSPGKTMPTTQSFASDPKYATPQVIQAPGPRAGPCILPIVRDGKKVSSTHYYLLPERPSYLERYQRFLREAQSPEEPTPLPVPLLLPPPSTPAPAAPTATVRPMPQAALDPKANFSTNNSNPGARPPPPRATARLPQRGCPGDGPEAGRPADKIQMAMVHGVTTEECQAALQCHGWSVQRAAQYLKVEQLFGLGLRPRGECHKVLEMFDWNLEQAGCHLLGSWGPAHHKR

These molecules were tested against T1, EGFR-Wt (Homo sapiens, UniProt P00533) (assay: MaMTH EGFR-interactor screen, lentiviral preys against EGFR-wildtype bait (interaction score)). Settings: MaMTH interaction score of prey with EGFR-Wt bait, mean.
T1 construct: with the advantage of testing full-length integral membrane proteins; (GGGGS)2 linker-Cub (human ubiquitin aa 35-76)-GAL4(1-147)-mNFkB(364-550) (C); expressed in transfected cells
Assay type: cell-based
Protocol: (§1) After lentivirus harvest, target cells (stable 5×GAL4UAS-luciferase reporter-HEK293T cells) were infected at a multiplicity of infection (MOI) of around 0.3-0.4 to ensure single copy integration per cell. Cells were selected in puromycin for at least 48 h and transfected with either EGFR-wildtype or EGFR-L858R baits in triplicates. 24 h after transfection, cells were lysed and luciferase assays performed. On each set of interaction assays, various negative controls were included. To calculate a MaMTH-interaction scores, negative controls were averaged and the fold-change of luciferase activity compared to the averaged controls was calculated and defined as the interaction score.
(§2) Each set of experiments contains a defined set of negative controls in at least three replicates. Negative controls were chosen as such that there is a range of controls showing high-background luciferase activity (normally cytosolic proteins: Fabp5, Pex19) as well as medium-background luciferase activity (membrane-bound interactors: Pex7, GABBR2). Negative controls were averaged and the fold-change of luciferase activity was calculated. Using this method, we have a stringent cut-off and chose an interaction score >1 to be interacting proteins.
(§3) Our cut-off of 1 is based on fold-change difference in luciferase activity over averaged negative controls. Negative controls include cytosolic preys (which tend to promiscuously bind to many proteins), plasma membrane- and peroxisomal-prey proteins. In general, we chose stringent conditions by testing preys that tend to have high luciferase background with any bait tested, in order to generate high-confidence interaction data. […] Phosphorylated tyrosine residues on the receptor are typically docking sites for downstream cytoplasmic targets and recognized through SH2 or PTB domains^43.

Molecule	EGFR-Wt mean
B1	8.40
B2	3.41
B3	3.48
B4	2.19
B5	1.79
B6	0.56
B7	1.51

Each molecule was assayed on EGFR-Wt in the same assay as above. Settings: ratio of EGFR-Wt mean to EGFR-L858R mean interaction score.
Assay type: cell-based, human
Protocol: as §1, §2, §3

Molecule	Wt/L858R
B1	1.43
B2	1.05
B3	1.10
B4	1.19
B5	0.22
B6	0.23
B7	1.16

These molecules were tested against T2, EGFR-L858R (Homo sapiens, UniProt P00533, L858R) (assay: MaMTH EGFR-interactor screen, lentiviral preys against EGFR-L858R bait (interaction score)). Settings: MaMTH interaction score of prey with EGFR-L858R bait.
T2 construct: with the advantage of testing full-length integral membrane proteins; (GGGGS)2 linker-Cub (human ubiquitin aa 35-76)-GAL4(1-147)-mNFkB(364-550) (C); expressed in transfected cells
Assay type: cell-based
Protocol: as §1, §2, §3

Molecule	EGFR-L858R mean
B1	5.86
B2	3.26
B3	3.15
B4	1.84
B5	8.12
B6	2.49
B7	1.30
